For assay [1], the target named is T1, Recombinant human MASP1 enzyme (fragment corresponding to amino acids 297-699, C-terminal His Tag) (human, UniProt P48740 297-699).
T1 sequence: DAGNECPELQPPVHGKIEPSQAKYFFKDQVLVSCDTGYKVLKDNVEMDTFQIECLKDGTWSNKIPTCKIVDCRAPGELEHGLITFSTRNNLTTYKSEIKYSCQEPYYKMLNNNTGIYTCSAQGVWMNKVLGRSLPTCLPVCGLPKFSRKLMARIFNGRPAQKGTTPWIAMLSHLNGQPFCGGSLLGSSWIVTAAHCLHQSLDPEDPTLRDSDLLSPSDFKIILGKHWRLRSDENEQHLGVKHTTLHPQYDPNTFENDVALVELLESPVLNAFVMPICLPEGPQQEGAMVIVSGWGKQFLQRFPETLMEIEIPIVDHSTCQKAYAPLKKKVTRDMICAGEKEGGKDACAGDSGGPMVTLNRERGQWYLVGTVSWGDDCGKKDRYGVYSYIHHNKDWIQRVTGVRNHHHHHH
The experiment in a line: cell-based or functional assay.

For assay [2], the target named is Recombinant human MASP2 enzyme (fragment corresponding to amino acids 297-686, C-terminal His Tag) (human, UniProt O00187 297-686). The experiment in a line: cell-based or functional assay.

The values below come from patent publication US20210246166A1 (Bayer, published 2021).

Numbered stars: 1 amine (or outer) side, 2 acyl side, 3 side chain; on linkers, the order of the positions; unused ones are H or OH. Bridge positions count the residues as written; N and C are the ends. Square brackets hold non-standard residues; d marks the D form. Ends that are not written are not given here. X13 = (2S)‑2‑amino‑3‑(1-methylcyclopropyl)propanoic acid, CC1(C[C@H](N[*:1])C(=O)[*:2])CC1; Oic = O=C(O)[C@@H]1C[C@@H]2CCCC[C@@H]2N1; tBuAla = CC(C)(C)C[C@H](N)C(=O)O; Pen = CC(C)(S)[C@H](N)C(=O)O; NMeC = CN[C@@H](CS)C(=O)O; Orn = NCCC[C@H](N)C(=O)O; Dap = NC[C@H](N)C(=O)O; Sar = CNCC(=O)O

Chain of Recombinant human MASP2 enzyme (fragment corresponding to amino acids 297-686, C-terminal His Tag) (O00187 other isoform, or with tags, fused parts or gaps limits assumed): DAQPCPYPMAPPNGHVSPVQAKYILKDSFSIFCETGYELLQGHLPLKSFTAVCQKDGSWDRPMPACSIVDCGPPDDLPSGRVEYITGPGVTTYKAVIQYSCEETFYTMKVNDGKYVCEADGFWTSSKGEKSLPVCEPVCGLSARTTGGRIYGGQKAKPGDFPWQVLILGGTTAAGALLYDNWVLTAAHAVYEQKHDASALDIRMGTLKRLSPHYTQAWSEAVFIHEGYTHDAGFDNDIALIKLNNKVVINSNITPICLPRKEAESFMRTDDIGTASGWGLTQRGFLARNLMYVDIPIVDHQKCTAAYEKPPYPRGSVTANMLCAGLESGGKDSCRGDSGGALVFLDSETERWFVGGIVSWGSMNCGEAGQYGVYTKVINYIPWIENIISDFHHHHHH

B1: ((N-Me)G)-IC+SRSLP-(Oic)-I-(Pen)+IPE-OH (peptide)
peptide: [Sar]ICSRSLP[Oic]I[Pen]IPE-OH
modifications: disulfide 3-11; N-terminus assumed
SMILES: CC[C@H](C)[C@H](NC(=O)CNC)C(=O)N[C@H]1CSSC(C)(C)[C@@H](C(=O)N[C@H](C(=O)N2CCC[C@H]2C(=O)N[C@@H](CCC(=O)O)C(=O)O)[C@@H](C)CC)NC(=O)[C@H]([C@@H](C)CC)NC(=O)[C@@H]2C[C@@H]3CCCC[C@@H]3N2C(=O)[C@@H]2CCCN2C(=O)[C@H](CC(C)C)NC(=O)[C@H](CO)NC(=O)[C@H](CCCNC(=N)N)NC(=O)[C@H](CO)NC1=O
Turning to B1, the “human MASP1 IC50” value in assay [1] worked out at 5.1 nM. The “human MASP2 IC50” value in assay [2] turned out to be 180 nM.

B2: (Dap)-IC+SRS-((tBu)A)-PPI-(Pen)+I-NH2 (peptide)
peptide: [Dap]ICSRS[tBuAla]PPI[Pen]I-NH2
modifications: disulfide 3-11; N-terminus assumed
SMILES: CC[C@H](C)[C@H](NC(=O)[C@H]1NC(=O)[C@H]([C@@H](C)CC)NC(=O)[C@@H]2CCCN2C(=O)[C@@H]2CCCN2C(=O)[C@H](CC(C)(C)C)NC(=O)[C@H](CO)NC(=O)[C@H](CCCNC(=N)N)NC(=O)[C@H](CO)NC(=O)[C@@H](NC(=O)[C@@H](NC(=O)[C@@H](N)CN)[C@@H](C)CC)CSSC1(C)C)C(N)=O
In the case of B2, the “human MASP1 IC50” value in assay [1] amounted to 5.1 nM. In addition, the “human MASP2 IC50” value in assay [2] was determined as 81 nM.

B3: aIC+SRSLP-(Oic)-I-(Pen)+IPQ-OH (peptide)
peptide: [dA]ICSRSLP[Oic]I[Pen]IPQ-OH
modifications: disulfide 3-11; N-terminus assumed
SMILES: CC[C@H](C)[C@H](NC(=O)[C@@H](C)N)C(=O)N[C@H]1CSSC(C)(C)[C@@H](C(=O)N[C@H](C(=O)N2CCC[C@H]2C(=O)N[C@@H](CCC(N)=O)C(=O)O)[C@@H](C)CC)NC(=O)[C@H]([C@@H](C)CC)NC(=O)[C@@H]2C[C@@H]3CCCC[C@@H]3N2C(=O)[C@@H]2CCCN2C(=O)[C@H](CC(C)C)NC(=O)[C@H](CO)NC(=O)[C@H](CCCNC(=N)N)NC(=O)[C@H](CO)NC1=O
Consider B3, for which the “human MASP1 IC50” value in assay [1] was found to be 4.9 nM. Besides, the “human MASP2 IC50” value in assay [2] came to 140 nM.

B4: ((N-Me)G)-IC+SRSLP-(Oic)-I-(Pen)+IPE-NH2 (peptide)
peptide: [Sar]ICSRSLP[Oic]I[Pen]IPE-NH2
modifications: disulfide 3-11; N-terminus assumed
SMILES: CC[C@H](C)[C@H](NC(=O)CNC)C(=O)N[C@H]1CSSC(C)(C)[C@@H](C(=O)N[C@H](C(=O)N2CCC[C@H]2C(=O)N[C@@H](CCC(=O)O)C(N)=O)[C@@H](C)CC)NC(=O)[C@H]([C@@H](C)CC)NC(=O)[C@@H]2C[C@@H]3CCCC[C@@H]3N2C(=O)[C@@H]2CCCN2C(=O)[C@H](CC(C)C)NC(=O)[C@H](CO)NC(=O)[C@H](CCCNC(=N)N)NC(=O)[C@H](CO)NC1=O
Consider B4, for which the “human MASP1 IC50” value in assay [1] was 5 nM. In assay [2], the “human MASP2 IC50” value came out at 200 nM.

[Sar]ICSRSLP[Oic]I[Pen]I[5‑Azaspiro(2.4)heptane‑1‑carboxylic acid]-OH (disulfide 3-11) [((N-Me)G)-IC+SRSLP-(Oic)-I-(Pen)+I-((5-Azaspiro[2.4]heptane-1-carboxylic acid)-OH]: in assay [1], the “human MASP1 IC50” value was found to be 5.1 nM. In addition, the “human MASP2 IC50” value in assay [2] worked out at 100 nM.

B5: AIC+SRSLP-(Oic)-I-((N-Me)C)+IPD-NH2 (peptide)
peptide: AICSRSLP[Oic]I[NMeC]IPD-NH2
modifications: disulfide 3-11; N-terminus assumed
SMILES: CC[C@H](C)[C@H](NC(=O)[C@H](C)N)C(=O)N[C@H]1CSSC[C@@H](C(=O)N[C@H](C(=O)N2CCC[C@H]2C(=O)N[C@@H](CC(=O)O)C(N)=O)[C@@H](C)CC)N(C)C(=O)[C@H]([C@@H](C)CC)NC(=O)[C@@H]2C[C@@H]3CCCC[C@@H]3N2C(=O)[C@@H]2CCCN2C(=O)[C@H](CC(C)C)NC(=O)[C@H](CO)NC(=O)[C@H](CCCNC(=N)N)NC(=O)[C@H](CO)NC1=O
With B5, the “human MASP1 IC50” value in assay [1] was found to be 4.8 nM. Besides, the “human MASP2 IC50” value in assay [2] is 245 nM.

As for [(2S)‑2((Amino)-2-(tetrahydro-2H-pyran-4-yl))acetic acid]ICSRSLP[Oic]ICI-OH (disulfide 3-11) [((2S)-2[(Amino)-2-(tetrahydro-2H-pyran-4-yl)]acetic acid)-IC+SRSLP-(Oic)-IC+I-OH], the “human MASP1 IC50” value in assay [1] stood at 4.7 nM. In assay [2], the “human MASP2 IC50” value was found to be 200 nM.

B6: aIC+SRSLP-(Oic)-I-(Pen)+IPE-NH2 (peptide)
peptide: [dA]ICSRSLP[Oic]I[Pen]IPE-NH2
modifications: disulfide 3-11; N-terminus assumed
SMILES: CC[C@H](C)[C@H](NC(=O)[C@@H](C)N)C(=O)N[C@H]1CSSC(C)(C)[C@@H](C(=O)N[C@H](C(=O)N2CCC[C@H]2C(=O)N[C@@H](CCC(=O)O)C(N)=O)[C@@H](C)CC)NC(=O)[C@H]([C@@H](C)CC)NC(=O)[C@@H]2C[C@@H]3CCCC[C@@H]3N2C(=O)[C@@H]2CCCN2C(=O)[C@H](CC(C)C)NC(=O)[C@H](CO)NC(=O)[C@H](CCCNC(=N)N)NC(=O)[C@H](CO)NC1=O
Take B6: the “human MASP1 IC50” value in assay [1] is 5 nM. Also, in assay [2], the “human MASP2 IC50” value turned out to be 150 nM.

B7: ((N-Me)G)-IC+SRS-((2S)-2-amino-3-(1-methylcyclopropyl)propanoic acid)-PPI-(Pen)+IP-NH2 (peptide)
peptide: [Sar]ICSRS[X13]PPI[Pen]IP-NH2
modifications: disulfide 3-11; N-terminus assumed
SMILES: CC[C@H](C)[C@H](NC(=O)CNC)C(=O)N[C@H]1CSSC(C)(C)[C@@H](C(=O)N[C@H](C(=O)N2CCC[C@H]2C(N)=O)[C@@H](C)CC)NC(=O)[C@H]([C@@H](C)CC)NC(=O)[C@@H]2CCCN2C(=O)[C@@H]2CCCN2C(=O)[C@H](CC2(C)CC2)NC(=O)[C@H](CO)NC(=O)[C@H](CCCNC(=N)N)NC(=O)[C@H](CO)NC1=O
On to B7, for which the “human MASP1 IC50” value in assay [1] was determined as 5.1 nM. Further, in assay [2], the “human MASP2 IC50” value came to 17 nM.

With AICSRS[tBuAla]PP[(2S)‑2‑(Amino)‑2‑((1S,3S)-3-hydroxycyclohexyl)acetic acid][NMeC]IPD-NH2 (disulfide 3-11) [AIC+SRS-((tBu)A)-PP-((2S)-2-(Amino)-2-[(1S,3S)-3-hydroxycyclohexyl]acetic acid)-((N-Me)C)+IPD-NH2], the “human MASP1 IC50” value in assay [1] amounted to 4.7 nM. Also, the “human MASP2 IC50” value in assay [2] was 1100 nM.

B8: (Orn)-IC+SRS-((tBu)A)-PPIC+I-NH2 (peptide)
peptide: [Orn]ICSRS[tBuAla]PPICI-NH2
modifications: disulfide 3-11; N-terminus assumed
SMILES: CC[C@H](C)[C@H](NC(=O)[C@@H]1CSSC[C@H](NC(=O)[C@@H](NC(=O)[C@@H](N)CCCN)[C@@H](C)CC)C(=O)N[C@@H](CO)C(=O)N[C@@H](CCCNC(=N)N)C(=O)N[C@@H](CO)C(=O)N[C@@H](CC(C)(C)C)C(=O)N2CCC[C@H]2C(=O)N2CCC[C@H]2C(=O)N[C@@H]([C@@H](C)CC)C(=O)N1)C(N)=O
For the molecule B8, in assay [1], the “human MASP1 IC50” value stood at 4.8 nM. Also, in assay [2], the “human MASP2 IC50” value stood at 170 nM.

B9: YIC+SRS-((tBu)A)-PPI-((N-Me)C)+I-NH2 (peptide)
peptide: YICSRS[tBuAla]PPI[NMeC]I-NH2
modifications: disulfide 3-11; N-terminus assumed
SMILES: CC[C@H](C)[C@H](NC(=O)[C@@H]1CSSC[C@H](NC(=O)[C@@H](NC(=O)[C@@H](N)Cc2ccc(O)cc2)[C@@H](C)CC)C(=O)N[C@@H](CO)C(=O)N[C@@H](CCCNC(=N)N)C(=O)N[C@@H](CO)C(=O)N[C@@H](CC(C)(C)C)C(=O)N2CCC[C@H]2C(=O)N2CCC[C@H]2C(=O)N[C@@H]([C@@H](C)CC)C(=O)N1C)C(N)=O
B9: the “human MASP1 IC50” value in assay [1] amounted to 4.5 nM. Also, the “human MASP2 IC50” value in assay [2] was 68 nM.

B10: ((N-Me)G)-IC+SRSLP-(Oic)-I-(Pen)+I-OH (peptide)
peptide: [Sar]ICSRSLP[Oic]I[Pen]I-OH
modifications: disulfide 3-11; N-terminus assumed
SMILES: CC[C@H](C)[C@H](NC(=O)[C@H]1NC(=O)[C@H]([C@@H](C)CC)NC(=O)[C@@H]2C[C@@H]3CCCC[C@@H]3N2C(=O)[C@@H]2CCCN2C(=O)[C@H](CC(C)C)NC(=O)[C@H](CO)NC(=O)[C@H](CCCNC(=N)N)NC(=O)[C@H](CO)NC(=O)[C@@H](NC(=O)[C@@H](NC(=O)CNC)[C@@H](C)CC)CSSC1(C)C)C(=O)O
B10: the “human MASP1 IC50” value in assay [1] is 4.9 nM. Also, the “human MASP2 IC50” value in assay [2] amounted to 550 nM.

B11: aIC+SRSLP-(Oic)-I-(Pen)+IP-OH (peptide)
peptide: [dA]ICSRSLP[Oic]I[Pen]IP-OH
modifications: disulfide 3-11; N-terminus assumed
SMILES: CC[C@H](C)[C@H](NC(=O)[C@@H](C)N)C(=O)N[C@H]1CSSC(C)(C)[C@@H](C(=O)N[C@H](C(=O)N2CCC[C@H]2C(=O)O)[C@@H](C)CC)NC(=O)[C@H]([C@@H](C)CC)NC(=O)[C@@H]2C[C@@H]3CCCC[C@@H]3N2C(=O)[C@@H]2CCCN2C(=O)[C@H](CC(C)C)NC(=O)[C@H](CO)NC(=O)[C@H](CCCNC(=N)N)NC(=O)[C@H](CO)NC1=O
As for B11, the “human MASP1 IC50” value in assay [1] is 4.9 nM. Further, in assay [2], the “human MASP2 IC50” value is 200 nM.

B12: AIC+SRS-((tBu)A)-P-(Oic)-I-((N-Me)C)+I-NH2 (peptide)
peptide: AICSRS[tBuAla]P[Oic]I[NMeC]I-NH2
modifications: disulfide 3-11; N-terminus assumed
SMILES: CC[C@H](C)[C@H](NC(=O)[C@@H]1CSSC[C@H](NC(=O)[C@@H](NC(=O)[C@H](C)N)[C@@H](C)CC)C(=O)N[C@@H](CO)C(=O)N[C@@H](CCCNC(=N)N)C(=O)N[C@@H](CO)C(=O)N[C@@H](CC(C)(C)C)C(=O)N2CCC[C@H]2C(=O)N2[C@@H](C[C@@H]3CCCC[C@@H]32)C(=O)N[C@@H]([C@@H](C)CC)C(=O)N1C)C(N)=O
Turning to B12, in assay [1], the “human MASP1 IC50” value came out at 5.2 nM. The “human MASP2 IC50” value in assay [2] was 250 nM.
